Assay results: US20240189392A1
Each block holds one binder with its values, some of them ahead of it. Positions of bridges follow the written chain, without caps; N, C: chain ends. Chains are numbered I, II in the order given. No end group written: not given here.

Biological target: human RXFP2 (human), Q8WXD0
Assay: cell-based or functional assay

Chain of human RXFP2 (human), Q8WXD0 (Q8WXD0 whole entry): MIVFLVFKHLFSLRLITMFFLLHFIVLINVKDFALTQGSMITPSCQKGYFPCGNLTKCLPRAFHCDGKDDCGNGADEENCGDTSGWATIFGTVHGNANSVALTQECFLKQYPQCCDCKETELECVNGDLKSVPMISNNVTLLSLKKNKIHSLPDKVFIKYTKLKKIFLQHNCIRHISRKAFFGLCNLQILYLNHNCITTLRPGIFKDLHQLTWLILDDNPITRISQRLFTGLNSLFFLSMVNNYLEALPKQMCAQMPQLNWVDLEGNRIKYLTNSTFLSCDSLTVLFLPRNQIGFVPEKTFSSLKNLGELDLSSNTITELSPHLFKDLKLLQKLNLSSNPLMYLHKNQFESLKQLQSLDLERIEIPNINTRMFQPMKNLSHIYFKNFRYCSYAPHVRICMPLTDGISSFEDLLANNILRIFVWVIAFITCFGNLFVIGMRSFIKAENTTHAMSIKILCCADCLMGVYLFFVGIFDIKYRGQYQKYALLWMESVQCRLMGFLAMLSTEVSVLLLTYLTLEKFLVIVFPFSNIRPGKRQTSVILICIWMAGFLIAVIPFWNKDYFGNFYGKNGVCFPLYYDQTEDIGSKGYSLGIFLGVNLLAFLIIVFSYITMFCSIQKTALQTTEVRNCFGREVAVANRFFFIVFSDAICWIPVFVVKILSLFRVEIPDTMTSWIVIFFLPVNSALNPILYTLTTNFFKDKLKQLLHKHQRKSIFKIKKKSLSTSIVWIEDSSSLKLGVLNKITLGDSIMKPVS

Maximal cAMP stimulation by RLX-A-AQ1-20KPEG compared to WT-RLX (percent difference), AVG, hRXFP2: 99%
Potency Ratio (RLX-A-AQ1-20KPEG/WT-RLX), cAMP assay, human RXFP2/CHO-K1 cells: 32 fold
RLX-A-AQ1-20KPEG Potency Ratio (hRXFP 1-1.0), cAMP assay: 54
cAMP Assay EC50 (nM), human RXFP2/CHO-K1 cells: 174 nM
B1: RLX-A-AQ1-20KPEG (ligand)
chain 1: XLYSALANKCCHVGCTKRSLARFC
chain 2: ASWMEEVIKLCGRELVRAQIAICGMSTWS
modifications: here or on the partner: pACF (para-acetylphenylalanine) at position 1 of the A chain, linked to a 20 kDA PEG via an oxime linkage

fold less potent than INSL3, cAMP assay, human RXFP2/CHO-K1 cells: 10 fold
B2: wild-type relaxin (human relaxin 2) (ligand)
chain 1: QLYSALANKCCHVGCTKRSLARFC
chain 2: DSWMEEVIKLCGRELVRAQIAICGMSTWS
modifications: disulfide I:10-I:15, I:11-II:11, I:24-II:23
